Laboratory results: patent US20030166162

What was measured:
[1] = target: glutathione S transferase KLIP 16 chymosin pro-peptide cystatin fusion protein
[2] = target: glutathione S transferase KLIP 14 chymosin pro-peptide cystatin fusion protein
[3] = target: glutathione S transferase KLIP 12 chymosin pro-peptide cystatin fusion protein
[4] = target: glutathione S transferase KLIP 15 chymosin pro-peptide cystatin fusion protein
[5] = target: glutathione S transferase KLIP 4 chymosin pro-peptide cystatin fusion protein
[6] = target: T1, GST-wild type calf chymosin pro-peptide-cystatin fusion protein, P09229
T1 chain: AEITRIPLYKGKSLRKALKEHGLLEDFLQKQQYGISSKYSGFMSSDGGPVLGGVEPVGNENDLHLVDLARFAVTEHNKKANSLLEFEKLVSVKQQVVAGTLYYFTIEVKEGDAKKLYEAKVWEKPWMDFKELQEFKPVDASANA

[7] = target: glutathione S transferase KLIP 11 chymosin pro-peptide cystatin fusion protein

B1: calf chymosin (protein)
chain: GEVASVPLTNYLDSQYFGKIYLGTPPQEFTVLFDTGSSDFWVPSIYCKSNACKNHQRFDPRKSSTFQNLGKPLSIHYGTGSMQGILGYDTVTVSNIVDIQQTVGLSTQEPGDVFTYAEFDGILGMAYPSLASEYSIPVFDNMMNRHLVAQDLFSVYMDRNGQESMLTLGAIDPSYYTGSLHWVPVTVQQYWQFTVDSVTISGVVVACEGGCQAILDTGTSKLVGPSSDILNIQQAIGATQNQYGEFDIDCDNLSYMPTVVFEINGKMYPLTPSAYTSQDQGFCTSGFQSENHSQKWILGDVFIREYYSVFDRANNLVGLAKAI
% Cystatin accumulation following reaction, 0.5 hr @ 37 C [1]: 0% | % Cystatin accumulation following reaction, 1.0 hr @ 37 C [1]: 0% | % Cystatin accumulation following reaction, 2.0 hr @ 37 C [1]: 0% | % Cystatin accumulation following reaction, 16 hr @ RT [1]: 0% | % Cystatin accumulation following reaction, T = 0 [1]: 0% | Scissile bond (N-terminal sequence) [1]: Uncleavable | % Cystatin accumulation following reaction, 0.5 hr @ 37 C [2]: 72% | % Cystatin accumulation following reaction, 1.0 hr @ 37 C [2]: 87% | % Cystatin accumulation following reaction, 2.0 hr @ 37 C [2]: 99% | % Cystatin accumulation following reaction, 16 hr @ RT [2]: 70% | % Cystatin accumulation following reaction, T = 0 [2]: 0% | % Cystatin accumulation following reaction, 0.5 hr @ 37 C [3]: 84% | % Cystatin accumulation following reaction, 1.0 hr @ 37 C [3]: 99.4% | % Cystatin accumulation following reaction, 2.0 hr @ 37 C [3]: 87% | % Cystatin accumulation following reaction, 16 hr @ RT [3]: 64% | % Cystatin accumulation following reaction, T = 0 [3]: 0% | % Cystatin accumulation following reaction, 0.5 hr @ 37 C [4]: 40% | % Cystatin accumulation following reaction, 1.0 hr @ 37 C [4]: 57.8% | % Cystatin accumulation following reaction, 2.0 hr @ 37 C [4]: 77.8% | % Cystatin accumulation following reaction, 16 hr @ RT [4]: 85% | % Cystatin accumulation following reaction, T = 0 [4]: 0% | % Cystatin accumulation following reaction, 0.5 hr @ 37 C [5]: 100% | % Cystatin accumulation following reaction, 1.0 hr @ 37 C [5]: 100% | % Cystatin accumulation following reaction, 2.0 hr @ 37 C [5]: 100% | % Cystatin accumulation following reaction, 16 hr @ RT [5]: 87% | % Cystatin accumulation following reaction, T = 0 [5]: 0% | % Cystatin accumulation following reaction, 16 hr @ RT; product with N-terminus MSSDGG [6]: 50% | % Cystatin accumulation following reaction, 16 hr @ RT; product with N-terminus SGFMSSDGG [6]: 50% | % Cystatin accumulation following reaction, T = 0 [6]: 0% | % Cystatin accumulation following reaction, 0.5 hr @ 37 C [7]: 83% | % Cystatin accumulation following reaction, 1.0 hr @ 37 C [7]: 80.5% | % Cystatin accumulation following reaction, 2.0 hr @ 37 C [7]: 100% | % Cystatin accumulation following reaction, 16 hr @ RT [7]: 67.8% | % Cystatin accumulation following reaction, T = 0 [7]: 0%
